Molecular target: Helicobacter pylori dimeric oxidoreductase DsbK (HP0231), native (Helicobacter pylori)
Experiment: SEC; size exclusion; conditions not shown (Supplementary Table S3)

stoichiometry N: 2
Substance: Helicobacter pylori dimeric oxidoreductase DsbK (HP0231), native (enzyme)

Source: publication PMC4960241
